Here are results for four molecules from patent US20170327594A1 (UNIVERSIT T STUTTGART, published 2017).

The target of assay [1] is T1, EGFR-Fc fusion protein (UniProt P00533 25-645, limits assumed).
T1 construct: extracellular domain; also called Fc fusion protein of the extracellular region of EGFR; immobilized EGFR; not shown: Fc part
The experiment in a line: ELISA on immobilized receptor-Fc. In general terms: An ELISA detects its analyte on a solid surface through an enzyme-linked reagent.

The next assay has as its target T2, HER3-Fc fusion protein (UniProt P21860 20-643, limits assumed).
T2 construct: extracellular domain; Negative control; also called Fc fusion protein of the extracellular region of HER3; not shown: Fc part
The experiment in a line: ELISA on immobilized receptor-Fc.

Assay [2] has as its target T3, EGFR on tumor cell lines (UniProt P00533 25-1210, limits assumed).
T3 construct: whole, on cells; Endogenous receptor of tumor cell lines; also called EGFR on A431, HT1080, NCI-H460, Colo205 cells
The experiment in a line: flow cytometry, NCI-H460 cells. The protocol: Bound proteins were detected with a FITC-labelled anti-His-tag antibody.
Furthermore, the antibody-MHD2 fusion proteins were analyzed by flow cytometry for binding to different tumor cell lines expressing various amounts of EGFR and HER2 (FIG. 4b).
(In general: A flow cytometer gives signals particle by particle.)

Assay [3] concerns the target T3, EGFR on tumor cell lines. In words: flow cytometry, Colo205 and NCI-H460 cells.
The target of assay [4] is T1, EGFR-Fc fusion protein. In words: ELISA on immobilized EGFR-Fc.
The next assay has as its target T4, HER2-Fc fusion protein (UniProt P04626 23-652, limits assumed).
T4 construct: extracellular domain; also called Fc fusion protein of the extracellular region of HER2; not shown: Fc part
The experiment in a line: ELISA on immobilized HER2-Fc.

Assay [5] addresses T1, EGFR-Fc fusion protein. The experiment in a line: ELISA titration on immobilized EGFR; the scFv is the weaker comparator.
The target in assay [6] is T3, EGFR on tumor cell lines. In words: cell-based or functional assay.
Assay [7] deals with T5, recombinant TRAIL-R1 (receptor-Fc fusion protein) (UniProt O00220 24-239, limits assumed).
T5 construct: also called TRAIL receptor 1; not shown: Fc part
The experiment in a line: ELISA on recombinant receptor-Fc.

The target of assay [8] is T3, EGFR on tumor cell lines. The experiment in a line: cell-based or functional assay. The source holds these as a separate data set.

B1: scFvEGFR-MHD2 (scFv)
chain: DAAQPAMAEVQLVESGGGLVQPGGSLRLSCAASGFSLTNYGVHWVRQAPGKGLEWLGVIWSGGNTDYNTPFTSRFTISRDNSKNTLYLQMNSLRAEDTAVYYCARALTYYDYEFAYWGQGTTVTVSSGGGGSGGGGSGGGGSDIQLTQSPSFLSASVGDRVTITCRASQSIGTNIHWYQQKPGKAPKLLIKYASESISGVPSRFSGSGSGTEFTLTISSLQPEDFATYYCQQNNNWPTTFGAGTKLEIKRGSLGGSGGAELPPKVSVFVPPRDGFFGNPRKSKLICQATGFSPRQIQVSWLREGKQVGSGVTTDQVQAEAKESGPTTYKVTSTLTIKESDWLGQSMFTCRVDHRGLTFQQNASSMCVPDGGGSGGGTGSEFAAAHHHHHH
notes: Bivalent homodimer: humanized anti-EGFR scFv (hu225) at the N-terminus of the IgM heavy chain domain 2, C-terminal His6; also called scFvA-MHD2; scFv-MHD2
Regarding B1, the binding result in the assay with EGFR-Fc fusion protein [1] is given as “binds”; with HER3-Fc fusion protein, “no binding”; with EGFR on tumor cell lines [2], “binds”.

B2: scFvEGFR-EHD2 (scFv)
chain: DAAQPAMAEVQLVESGGGLVQPGGSLRLSCAASGFSLTNYGVHWVRQAPGKGLEWLGVIWSGGNTDYNTPFTSRFTISRDNSKNTLYLQMNSLRAEDTAVYYCARALTYYDYEFAYWGQGTTVTVSSGGGGSGGGGSGGGGSDIQLTQSPSFLSASVGDRVTITCRASQSIGTNIHWYQQKPGKAPKLLIKYASESISGVPSRFSGSGSGTEFTLTISSLQPEDFATYYCQQNNNWPTTFGAGTKLEIKRGSLGGSGGDFTPPTVKILQSSCDGGGHFPPTIQLLCLVSGYTPGTINITWLEDGQVMDVDLSTASTTQEGELASTQSELTLSQKHWLSDRTYTCQVTYQGHTFEDSTKKCADSNGGGSGGGTGSEFAAAHHHHHH
notes: Bivalent homodimer: anti-EGFR scFv at the N-terminus of the IgE heavy chain domain 2, hexahistidyl-tagged; also called scFv-EHD2
For the molecule B2, the binding result with EGFR on tumor cell lines [3] was “binds”; with EGFR-Fc fusion protein [4], “binds”; with HER2-Fc fusion protein it was “no binding”.

B3: anti-EGFR scFv (hu225) (scFv)
scFv: EVQLVESGGGLVQPGGSLRLSCAASGFSLTNYGVHWVRQAPGKGLEWLGVIWSGGNTDYNTPFTSRFTISRDNSKNTLYLQMNSLRAEDTAVYYCARALTYYDYEFAYWGQGTTVTVSSGGGGSGGGGSGGGGSDIQLTQSPSFLSASVGDRVTITCRASQSIGTNIHWYQQKPGKAPKLLIKYASESISGVPSRFSGSGSGTEFTLTISSLQPEDFATYYCQQNNNWPTTFGAGTKLEIKR
notes: also called monovalent anti-EGFR scFv; scFv directed against EGFR
Regarding B3, the binding result with EGFR-Fc fusion protein [5] is given as “binds”.

B4: scFvEGFR-EHD2-scTRAIL (other)
chain: DYKDDDDKGGGGSAAQPAMAEVQLVESGGGLVQPGGSLRLSCAASGFSLTNYGVHWVRQAPGKGLEWLGVIWSGGNTDYNTPFTSRFTISRDNSKNTLYLQMNSLRAEDTAVYYCARALTYYDYEFAYWGQGTTVTVSSGGGGSGGGGSGGGGSDIQLTQSPSFLSASVGDRVTITCRASQSIGTNIHWYQQKPGKAPKLLIKYASESISGVPSRFSGSGSGTEFTLTISSLQPEDFATYYCQQNNNWPTTFGAGTKLEIKRAAAGGSGGDFTPPTVKILQSSCDGGGHFPPTIQLLCLVSGYTPGTINITWLEDGQVMDVDLSTASTTQEGELASTQSELTLSQKHWLSDRTYTCQVTYQGHTFEDSTKKCADSNGGSGGEFTRGTSEETISTVQEKQQNISPLVRERGPQRVAAHITGTRGRSNTLSSPNSKNEKALGRKINSWESSRSGHSFLSNLHLRNGELVIHEKGFYYIYSQTYFRFQEEIKENTKNDKQMVQYIYKYTSYPDPILLMKSARNSCWSKDAEYGLYSIYQGGIFELKENDRIFVSVTNEHLIDMDHEASFFGAFLVGGGGSGGGSTSEETISTVQEKQQNISPLVRERGPQRVAAHITGTRGRSNTLSSPNSKNEKALGRKINSWESSRSGHSFLSNLHLRNGELVIHEKGFYYIYSQTYFRFQEEIKENTKNDKQMVQYIYKYTSYPDPILLMKSARNSCWSKDAEYGLYSIYQGGIFELKENDRIFVSVTNEHLIDMDHEASFFGAFLVGGGGSGGGSTSEETISTVQEKQQNISPLVRERGPQRVAAHITGTRGRSNTLSSPNSKNEKALGRKINSWESSRSGHSFLSNLHLRNGELVIHEKGFYYIYSQTYFRFQEEIKENTKNDKQMVQYIYKYTSYPDPILLMKSARNSCWSKDAEYGLYSIYQGGIFELKENDRIFVSVTNEHLIDMDHEASFFGAFLVG
notes: Homodimer: anti-EGFR scFv, EHD2, single-chain TRAIL, FLAG-tagged; also called scFv-EHD2-scTRAIL; anti-EGFR scFv-EHD2-scTRAIL
With B4, the “cytotoxic activity against EHD2-scTRAIL, no bortezomib (NCI-H460, Colo205)” value in the assay with EGFR on tumor cell lines [6] was roughly 20 fold. In [7], the binding result is reported as “binds”. The binding result with HER2-Fc fusion protein is listed as “no binding”. Besides, in the assay with EGFR on tumor cell lines [8], the “IC50 (nM), in vitro cytotoxicity, Colo205, no bortezomib, no cetuximab” value was 0.5 nM; the “IC50 (nM), in vitro cytotoxicity, Colo205, with bortezomib, no cetuximab” value was determined as 0.14 nM; the “IC50 (nM), in vitro cytotoxicity, Colo205, with bortezomib, with cetuximab” value came to 1.43 nM; the “IC50 (nM), in vitro cytotoxicity, NCI-H460, no bortezomib, no cetuximab” value turned out to be 0.32 nM. For the same molecule, in the assay with EGFR on tumor cell lines [8], the “IC50 (nM), in vitro cytotoxicity, NCI-H460, with bortezomib, no cetuximab” value is 0.02 nM and the “IC50 (nM), in vitro cytotoxicity, NCI-H460, with bortezomib, with cetuximab” value came out at 0.15 nM.
